Source: the Human Domainome abundance scans (Beltran et al. 2025)
± gives the uncertainty stated by the source.

B1: Kinesin-like protein KIF16B, residues 1213 to 1273; numbered along this chain, Q96L93 (parent)
chain: ETWTVFRRYSRFREMHKTLKLKYAELAALEFPPKKLFGNKDERVIAERRSHLEKYLRDFFS

Variants of: B1
Experiment: abundance fitness (aPCA) (normalised: wild type 0, dead -1); higher = more abundant; growth selection in yeast, the domain comes from the species named
Conditions: Homo sapiens

Abundance fitness, by site and new letter:
E30: Q 0.036 ± 0.093; A 0.169 ± 0.052; V 0.372 ± 0.042; W 0.313 ± 0.071; S 0.151 ± 0.065; K -0.033 ± 0.084; M 0.347 ± 0.072; D 0.08 ± 0.068; Y 0.322 ± 0.047; N 0.071 ± 0.096; G 0.153 ± 0.046; R 0.018 ± 0.058; L 0.476 ± 0.039; H -0.212 ± 0.11; T 0.108 ± 0.093; I 0.539 ± 0.079
A27: W -0.362 ± 0.073; F -0.215 ± 0.32; C 0.099 ± 0.087; T 0.127 ± 0.078; D -0.388 ± 0.11; S -0.099 ± 0.069; L -0.02 ± 0.061; N -0.281 ± 0.16; G -0.293 ± 0.047; V -0.041 ± 0.058; M 0.246 ± 0.091; Q 0.166 ± 0.09; R 0.245 ± 0.053; K 0.286 ± 0.055
D41: T -0.101 ± 0.12; Q -0.064 ± 0.14; L 0.332 ± 0.044; I 0.394 ± 0.1; C 0.101 ± 0.12; A 0.154 ± 0.049; P -0.167 ± 0.11; V 0.159 ± 0.069; G 0.038 ± 0.056; S 0.065 ± 0.061; N 0.08 ± 0.07; F 0.149 ± 0.099; E -0.07 ± 0.076; R -0.184 ± 0.048; M 0.231 ± 0.075; H -0.025 ± 0.22; K 0.028 ± 0.073
F37: R -0.35 ± 0.072; H -0.597 ± 0.45; P -0.573 ± 0.14; G -0.334 ± 0.076; S -0.446 ± 0.061; C -0.631 ± 0.3; A -0.451 ± 0.12; I -0.111 ± 0.14; D -0.2 ± 0.1; V -0.202 ± 0.088; L -0.271 ± 0.081; Q -0.476 ± 0.12; E -0.407 ± 0.056; K -0.189 ± 0.094; T -0.566 ± 0.096; W -0.734 ± 0.23
L36: S -0.67 ± 0.15; Q -0.976 ± 0.37; F -0.02 ± 0.31; W 0.27 ± 0.088; H -0.826 ± 0.24; A -0.41 ± 0.11; K -0.463 ± 0.14; P -0.317 ± 0.15; D -0.596 ± 0.3; M -0.586 ± 0.23; V -0.435 ± 0.085; E -0.592 ± 0.1; G -0.658 ± 0.099; Y -0.525 ± 0.21; R -0.634 ± 0.1; T -0.453 ± 0.13
K35: T -0.585 ± 0.41; S -0.108 ± 0.074; G -0.148 ± 0.062; I -0.521 ± 0.23; M -0.36 ± 0.13; N 0.034 ± 0.12; Q -0.233 ± 0.4; D -0.717 ± 0.35; A -0.204 ± 0.19; Y -0.073 ± 0.16; E -0.786 ± 0.26; V -0.34 ± 0.12
K22: S -1.01 ± 0.22; Q -0.828 ± 0.16; G -0.454 ± 0.072; V 0.03 ± 0.059; C -0.222 ± 0.12; D -0.907 ± 0.37; E -0.77 ± 0.3; P -0.921 ± 0.16; Y -0.354 ± 0.28; M -0.153 ± 0.1; I 0.069 ± 0.095; A -0.168 ± 0.09; L 0.127 ± 0.055; W 0.28 ± 0.078; R -0.354 ± 0.071; T -0.207 ± 0.12
K34: V 0.06 ± 0.094; A 0.368 ± 0.24
P33: L 0.366 ± 0.049; S 0.022 ± 0.067; Y -0.378 ± 0.24; G 0.279 ± 0.038; D -1.07 ± 0.42; T -0.02 ± 0.16; K 0.035 ± 0.13; F 0.495 ± 0.096; W 0.322 ± 0.084; A 0.047 ± 0.059; Q -0.429 ± 0.26; E -0.857 ± 0.24; H 0.107 ± 0.15; V 0.17 ± 0.039; I 0.24 ± 0.39
E25: R -0.352 ± 0.06; S -0.238 ± 0.042; F -0.224 ± 0.12; Y -0.542 ± 0.12; M -0.409 ± 0.2; G -0.384 ± 0.068; T -0.468 ± 0.093; L -0.465 ± 0.084; K -0.144 ± 0.069; Q 0.015 ± 0.12; A -0.309 ± 0.092; H -0.749 ± 0.42; V -0.475 ± 0.063; I -0.292 ± 0.18
N39: E -0.397 ± 0.13; Y -0.347 ± 0.078; K 0.203 ± 0.11; W -0.108 ± 0.063; I 0.06 ± 0.13; R 0.04 ± 0.041; V -0.011 ± 0.077; P -0.102 ± 0.12; A 0.174 ± 0.16; S -0.033 ± 0.07; M -0.063 ± 0.063; H 0.05 ± 0.16; T -0.291 ± 0.082; F -0.246 ± 0.16; Q 0.054 ± 0.12; G 0.036 ± 0.065
L21: K 0.339 ± 0.077; N -0.289 ± 0.25; V 0.114 ± 0.054; H 0.112 ± 0.094; F -0.559 ± 0.19; C -0.131 ± 0.077; R 0.163 ± 0.056; M 0.147 ± 0.096; I -0.379 ± 0.27; Q 0.159 ± 0.16; T -0.079 ± 0.13; G -0.028 ± 0.031; D 0.101 ± 0.11
